Publication PMC4756812, “ZFP57 recognizes multiple and closely spaced sequence motif variants to maintain repressive epigenetic marks in mouse embryonic stem cells”

T1: MBP-ZFP57 DNA binding domain (Glu87-Ala195) (Mus musculus, UniProt Q8C6P8 87-195)
T1 sequence: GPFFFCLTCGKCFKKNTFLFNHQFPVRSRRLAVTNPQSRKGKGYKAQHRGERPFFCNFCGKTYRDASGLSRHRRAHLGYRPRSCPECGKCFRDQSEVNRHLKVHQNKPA

B1: Methylated 1G (dsDNA)
DNA 1: GTAATATGGCCGCAGTAATA
DNA 2: TATTACTGCGGCCATATTAC
modifications: 5mC at top 11 and bottom 9
B2: Methylated Commd1 (dsDNA)
DNA 1: GTAACTGCGGCCGCCCCACA
DNA 2: TGTGGGGCGGCCGCAGTTAC
modifications: 5mC at top 8, 12 and bottom 12, 8 (5'-based)
B3: Methylated Ston2 JF1 (dsDNA)
DNA 1: CTGGGGCGGCAGTTGCCGCAGATGG
DNA 2: CCATCTGCGGCAACTGCCGCCCCAG
modifications: 5mC at top 7, 17; methylated bottom strand not in material
B4: Methylated Control (dsDNA)
DNA 1: GTAATATTGCCGCAGTAATA
DNA 2: TATTACTGCGGCAATATTAC
modifications: 5mC at top 11 and bottom 9 (5'-based; printed Z)

What was measured:
[1] = target: T1, MBP-ZFP57 DNA binding domain …; experiment: EMSA; EMSA: 25 pmol protein, 2.5 pmol dsDNA, 25 mM HEPES pH 7.9, 50 mM KCl, 6.25 mM MgCl2, 5% glycerol, on ice 10 min; 5% PAGE, SYBR Green stain; conditions: protein: recombinant; blunt
[2] = target: T1, MBP-ZFP57 DNA binding domain …; experiment: EMSA; lower efficiency than control TGCCGC; EMSA: 25 pmol protein, 2.5 pmol dsDNA, 25 mM HEPES pH 7.9, 50 mM KCl, 6.25 mM MgCl2, 5% glycerol, on ice 10 min; 5% PAGE, SYBR Green stain; conditions: protein: recombinant; blunt

| Binder | binding result [1] | binding result [2] |
| --- | --- | --- |
| B1 | binds | – |
| B2 | – | binds |
| B3 | binds | – |
| B4 | binds | – |
